According to the supplement of paper PMC11246515:
± gives the standard deviation of the averaged measurements.

Test: total protein half-life in vivo (active degradation + dilution); higher = more stable protein
[1] = E. coli NCM3722 delta-clpP delta-lon delta-hslV, growth: N-lim chemostat, doubling time 6 h
[2] = E. coli NCM3722 delta-clpP, growth: N-lim chemostat, doubling time 6 h
[3] = E. coli NCM3722 delta-hslV, growth: N-lim chemostat, doubling time 6 h
[4] = E. coli NCM3722 delta-lon, growth: N-lim chemostat, doubling time 6 h
[5] = E. coli NCM3722 delta-smpB, growth: N-lim chemostat, doubling time 6 h
[6] = wild type E. coli NCM3722, growth: C-lim chemostat, doubling time 3 h
[7] = wild type E. coli NCM3722, growth: C-lim chemostat, doubling time 12 h
[8] = wild type E. coli NCM3722, growth: N-lim chemostat, doubling time 6 h
[9] = wild type E. coli NCM3722, growth: N-lim chemostat, doubling time 12 h
[10] = wild type E. coli NCM3722, growth: P-lim chemostat, doubling time 6 h
[11] = wild type E. coli NCM3722, growth: P-lim chemostat, doubling time 12 h
[12] = wild type E. coli NCM3722, growth: C-lim chemostat, doubling time 6 h

| Sequence | total protein half-life in vivo [1] [h] | total protein half-life in vivo [2] [h] | total protein half-life in vivo [3] [h] | total protein half-life in vivo [4] [h] | total protein half-life in vivo [5] [h] | total protein half-life in vivo [6] [h] | total protein half-life in vivo [7] [h] | total protein half-life in vivo [8] [h] | total protein half-life in vivo [9] [h] | total protein half-life in vivo [10] [h] | total protein half-life in vivo [11] [h] | total protein half-life in vivo [12] [h] |
| --- | --- | --- | --- | --- | --- | --- | --- | --- | --- | --- | --- | --- |
| MKFWRPGITGKLFLAIFATCIVLLISMHWAVRISFERGFIDYIKHGNEQRLQLLSDALGEQYAQHGNWRFLRNNDRFVFQILRSFEHDNSEDKPGPGMPPHGWRTQFWVVDQNNKVLVGPRAPIPPDGTRRPILVNGAEVGAVIASPVERLTRNTDINFDKQQRQTSWLIVALATLLAALATFLLARGLLAPVKRLVDGTHKLAAGDFTTRVTPTSEDELGKLAQDFNQLASTLEKNQQMRRDFMADISHELRTPLAVLRGELEAIQDGVRKFTPETVASLQAEVGTLTKLVDDLHQLSMSDEGALAYQKAPVDLIPLLEVAGGAFRERFASRGLKLQFSLPDSITVFGDRDRLMQLFNNLLENSLRYTDSGGSLQISAGQRDKTVRLTFADSAPGVSDDQLQKLFERFYRTEGSRNRASGGSGLGLAICLNIVEAHNGRIIAAHSPFGGVSITVELPLERDLQREV | 6.52 ± 0.079 | 6.22 ± 0.26 | 6.4 ± 0.69 | 6.08 ± 0.73 | 5.49 ± 0.43 | 3.33 ± 0.098 | 11.3 ± 2.3 | 6.23 ± 0.92 | 12.9 ± 0.13 | 6.86 ± 0.52 | 12.1 ± 1.4 |  |
| MKIITCFKLVPEEQDIVVTPEYTLNFDNADAKISQFDLNAIEAASQLATDDDEIAALTVGGSLLQNSKVRKDVLSRGPHSLYLVQDAQLEHALPLDTAKALAAAIEKIGFDLLIFGEGSGDLYAQQVGLLVGEILQLPVINAVSAIQRQGNTLVIERTLEDDVEVIELSVPAVLCVTSDINVPRIPSMKAILGAGKKPVNQWQASDIDWSQSAPLAELVGIRVPPQTERKHIIIDNDSPEAIAELAEHLKKALN |  |  |  | 4.32 |  | 0.95 |  |  |  |  |  |  |
| MKTLSPAVITLLWRQDAAEFYFSRLSHLPWAMLLHSGYADHPYSRFDIVVAEPICTLTTFGKETVVSESEKRTTTTDDPLQVLQQVLDRADIRPTHNEDLPFQGGALGLFGYDLGRRFESLPEIAEQDIVLPDMAVGIYDWALIVDHQRHTVSLLSHNDVNARRAWLESQQFSPQEDFTLTSDWQSNMTREQYGEKFRQVQEYLHSGDCYQVNLAQRFHATYSGDEWQAFLQLNQANRAPFSAFLRLEQGAILSLSPERFILCDNSEIQTRPIKGTLPRLPDPQEDSKQAVKLANSAKDRAENLMIVDLMRNDIGRVAVAGSVKVPELFVVEPFPAVHHLVSTITAQLPEQLHASDLLRAAFPGGSITGAPKVRAMEIIDELEPQRRNAWCGSIGYLSFCGNMDTSITIRTLTAINGQIFCSAGGGIVADSQEEAEYQETFDKVNRILKQLEK | 5 ± 0.22 | 4.56 ± 0.35 | 4.358 ± 0.037 | 4.5 ± 0.1 | 4.47 ± 0.21 | 3.57 ± 0.57 | 11 ± 0.69 | 4.31 ± 0.16 | 7.82 ± 0.28 | 6.33 ± 0.27 | 12.2 ± 1.5 | 5.38 ± 0.12 |
| MIWKRKITLEALNAMGEGNMVGFLDIRFEHIGDDTLEATMPVDSRTKQPFGLLHGGASVVLAESIGSVAGYLCTEGEQKVVGLEINANHVRSAREGRVRGVCKPLHLGSRHQVWQIEIFDEKGRLCCSSRLTTAIL | 4.78 | 3.39 | 4.22 | 4.14 | 3.73 ± 0.23 | 2.75 ± 0.11 |  | 4.23 | 9.08 ± 3.8 | 6.54 | 10.7 |  |
| MKKIGVAGLQREQIKKTIEATAPGCFEVFIHNDMEAAMKVKSGQLDYYIGACNTGAGAALSIAIAVIGYNKSCTIAKPGIKAKDEHIAKMIAEGKVAFGLSVEHVEHAIPMLINHLK |  |  | 4.29 |  |  | 3.02 |  |  |  |  |  |  |
| MMIRERIEEKLRAAFQPVFLEVVDESYRHNVPAGSESHFKVVLVSDRFTGERFLNRHRMIYSTLAEELSTTVHALALHTYTIKEWEGLQDTVFASPPCRGAGSIA [P0ABE2] | 3.71 ± 0.15 |  |  | 1.81 ± 0.13 | 1.55 | 1.53 ± 0.071 | 3.32 | 1.99 ± 0.31 | 3.19 | 3.23 | 5.55 ± 0.6 | 2.52 ± 0.14 |
| MIEFVYPHTQLVAGVDEVGRGPLVGAVVTAAVILDPARPIAGLNDSKKLSEKRRLALYEEIKEKALSWSLGRAEPHEIDELNILHATMLAMQRAVAGLHIAPEYVLIDGNRCPKLPMPAMAVVKGDSRVPEISAASILAKVTRDAEMAALDIVFPQYGFAQHKGYPTAFHLEKLAEHGATEHHRRSFGPVKRALGLAS |  | 1.93 | 1.11 | 2.38 ± 0.2 | 1.39 ± 0.024 | 1.7 ± 0.042 | 3.19 | 1.19 | 1.91 | 1.43 | 2.12 ± 0.71 | 2.67 ± 0.43 |
| MKNFEVLQPLQNSLSGLPLWVSERILQQINQLTHYEPVIGIMGKTGAGKSSLCNALFAGEVSPVSDVAACTRDPLRFRLQIGEHFMTIVDLPGVGESGVRDTEYAALYREQLPRLDLILWLIKADDRALATDEHFYRQVIGEAYRHKMLFVISQSDKAEPTSGGNILSTEQKQNISRKICLLHELFQPVHPVCAVSVRLQWGLRVMAERMIKCLPREASSPVVALLQHPFRTTVAREQARDDFGETVGAILDTVSTFPLIPAPVRTIIQAVRSSVVSVARAVWDFFF |  |  | 3.97 |  |  |  | 10.6 |  |  |  |  |  |
| MKKLLRLFFPLSLRVRFLLATAAVVLVLSLAYGMVALIGYSVSFDKTTFRLLRGESNLFYTLAKWENNKLHVELPENIDKQSPTMTLIYDENGQLLWAQRDVPWLMKMIQPDWLKSNGFHEIEADVNDTSLLLSGDHSIQQQLQEVREDDDDAEMTHSVAVNVYPATSRMPKLTIVVVDTIPVELKSSYMVWSWFIYVLSANLLLVIPLLWVAAWWSLRPIEALAKEVRELEEHNRELLNPATTRELTSLVRNLNRLLKSERERYDKYRTTLTDLTHSLKTPLAVLQSTLRSLRSEKMSVSDAEPVMLEQISRISQQIGYYLHRASMRGGTLLSRELHPVAPLLDNLTSALNKVYQRKGVNISLDISPEISFVGEQNDFVEVMGNVLDNACKYCLEFVEISARQTDEHLYIVVEDDGPGIPLSKREVIFDRGQRVDTLRPGQGVGLAVAREITEQYEGKIVAGESMLGGARMEVIFGRQHSAPKDE | 7.01 ± 1.1 | 6.22 ± 0.32 | 5.85 ± 0.59 | 6.87 ± 1.1 | 6.02 ± 0.93 | 3.26 ± 0.4 | 10.2 ± 1.2 | 6.046 ± 0.045 | 12.5 ± 0.13 | 6.36 ± 0.37 | 13.5 ± 1.9 | 5.936 ± 0.044 |
